Experimental findings from patent US20220111034A1, “VIRUS COMPOSITIONS” (priority 2019, published 2022) are described below.

Bounds are passed on as bounds.

The target in assay [1] is human JAM-A expressed on the surface of transduced Lec2 or CHO cells (Lec2-JAM-A, CHO-JAM-A) (human) (UniProt Q9Y624). In words: FD-based AFM adhesion mapping on living Lec2-JAM-A cells.
The target is the same in assay [2]. In words: FD-based AFM on Lec2-JAM-A cells, after injection of 1 mM LNnT.
For assay [3] the target is unchanged. In words: FD-based AFM on Lec2-JAM-A cells, after injection of 1 mM LSTa.
The target is the same in assay [4]. In words: FD-based AFM on Lec2-JAM-A cells, before injection of 1 mM LNnT.
Assay [5] shares this target. The assay is described as follows: FD-based AFM on Lec2-JAM-A cells, before injection of 1 mM LSTa.
For assay [6] the target is unchanged. In words: FD-based AFM on Lec2-JAM-A cells, after injection of 1 mM Neu5Ac.
Assay [7] shares this target. The assay is described as follows: FD-based AFM on Lec2-JAM-A cells, before injection of 1 mM Neu5Ac.
Assay [8] deals with His6-tagged JAM-A (Bio-Connect Life Science), immobilized on NTA-Ni2+ surfaces or biosensors. In words: AFM dynamic force spectroscopy, Bell-Evans fit, JAM-A model surface.
Assay [9] shares this target. In words: single-virus AFM force spectroscopy, virion on tip, His6-JAM-A model surface.
Assay [10] shares this target. The assay is described as follows: AFM force spectroscopy on JAM-A model surface after injection of 1 mM Neu5Ac or LSTa.
Assay [11] addresses human JAM-A expressed on the surface of transduced Lec2 or CHO cells (Lec2-JAM-A, CHO-JAM-A) (human) (UniProt Q9Y624). The assay is described as follows: FD-based AFM on neuraminidase-treated Lec2-JAM-A cells after injection of Neu5Ac, against before injection.

Sequence of human JAM-A expressed on the surface of transduced Lec2 or CHO cells (Lec2-JAM-A, CHO-JAM-A) (human) (Q9Y624 28-299): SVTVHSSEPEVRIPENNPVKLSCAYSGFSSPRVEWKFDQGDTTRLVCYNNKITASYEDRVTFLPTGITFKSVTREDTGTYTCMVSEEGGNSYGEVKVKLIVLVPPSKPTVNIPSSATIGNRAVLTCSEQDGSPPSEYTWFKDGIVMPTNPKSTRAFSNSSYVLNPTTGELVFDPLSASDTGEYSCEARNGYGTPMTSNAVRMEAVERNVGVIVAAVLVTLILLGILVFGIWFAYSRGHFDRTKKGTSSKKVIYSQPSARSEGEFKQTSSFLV

For orientation: koff means the rate constant with which the complex falls apart. In the case of “T3SA+ reovirus virion (wild-type strain type 3 Dearing, T3D), binding through its outer-capsid attachment protein sigma-1 (σ1) (from UniProt P03528 1-455)”, in assay [1], the binding force (rupture force) was 50 to 400 pN. In [1], this substance yielded a density of adhesion events (binding frequency) of 3.5%. Also, the binding frequency came to 3.9% in assay [2]; 4.8% in assay [3]; 3.8% in assay [4]; 3.8% in [5]; 4.9% in assay [6]; 3.9% in [7]. For the same substance, the koff in assay [8] is 0.04 s⁻¹. The xu (distance to the transition state) in [8] stood at 0.71 nm. This substance also had a specific binding force in [9] of 20 to 130 pN. The substance further displayed an overall binding force in assay [10] of less than 400 pN. This substance came in with an increase in binding in assay [11] of 20%.
On to “T3SA- reovirus virion (T3D derivative carrying a point mutation in sigma-1, T3D-σ1R202W) (from UniProt P03528 1-455)”, for which, in [1], the frequency of adhesion events (binding frequency) was 4%. In assay [8], this substance came in with a koff of 0.05 s⁻¹ and a xu (distance to the transition state) of 0.48 nm. Also, in [9], the specific binding force is 20 to 130 pN.
